B1: recombinant mouse (rm)Siglec-G (receptor, UniProt Q80ZE3 18-543, looked up)
chain: QMESYFLQVQRIVKAQEGLCIFVPCSFSSPEGKWLNRSPLYGYWFKGIRKPSLSFPVATNNKDKVLEWEARGRFQLLGDISKKNCSLLIKDVQWGDSTNYFFRMERGFERFSFKEEFRLQVEALTQKPDIFIPEVLEPGEPVTVVCLFSWTFNQCPAPSFSWMGDAVSFQESRPHTSNYSVLSFIPGLQHHDTELTCQLDFSRMSTQRTVRLRVAYAPRSLAISIFHDNVSVPDLHENPSHLEVQQGQSLRLLCTADSQPPATLSWVLEDQVLSWSSPVGSRTLALELPWVKAGDSGHYTCQAENRLGSQQHTLDLSVLYPPQDLRVTVSQANRTVLEILRNAISLPVLEGQSLCLVCVTYSNPPANVSWAWVTQTLIPIQSSEPGVLELPLVQREHEGEFTCAAQNPLGAQRISLSLSVHYPPQMSSPSCSWEAKGLHCNCSSRAWPAPSLRWRLGEGLLEGNSSNASFTVTFSSLGPWVNSSLSLLQELGPSLWLSCESWNTHGAQTTSVLLLPDKDSATAFSK
notes: Siglec-G, mouse, recombinant; UniProt Q80ZE3 is printed for the in silico model; check the vendor's data sheet; source: bought: R&D Systems (Cat. No. 10103-SL-050)
B2: recombinant mouse CD47 (receptor, UniProt Q61735 19-140, looked up)
chain: QLLFSNVNSIEFTSCNETVVIPCIVRNVEAQSTEEMFVKWKLNKSYIFIYDGNKNSTTTDQNFTSAKISVSDLINGIASLKMDKRDAMVGNYTCEVTELSREGKTVIELKNRTVSWFSPNEK
notes: CD47, mouse, recombinant; UniProt Q61735 is printed for the in silico model; check the vendor's data sheet; also called rmCD47; source: bought: Abcam (Cat. No. AB231160)

What was measured:
rmCD47 = experiment: Surface plasmon resonance: rmSiglec-G binding to immobilized rmCD47; parameters: species or system mouse; conditions: SPR (OpenSPR), rmCD47 immobilized on HS-carboxyl sensor, rmSiglec-G analyte 100, 250 and 500 nM, PBS 0.05% P20, pH 7.4, 20°C, 1:1 global fit; no C11; read-out: dissociation constant (KD) Siglec-G/CD47
Procedure: To examine the direct interaction between recombinant mouse (rm)Siglec-G (Cat. No. 10103-SL-050, R&D Systems, Minneapolis, MN) and rmCD47 (Cat. No. AB231160, Abcam, Cambridge, UK), surface plasmon resonance (SPR), using OpenSPR (Nicoya, Ontario, Canada), was performed. HS-Carboxyl sensor was used; rmCD47 was immobilized on the sensor surface; rmSiglec-G was in the reaction buffer, working as an analyte. Binding reactions were performed in PBS 0.05% P20, pH7.4. The carboxyl sensor was first cleaned by injecting 150 µL of 10 mM HCl, followed by injection of 150 µL of the mixture of 1 aliquot of N-ethyl-N′-[3-[…]]-carbodiimide (EDC) and 1 aliquot of N-hydroxysuccinimide (NHS) to activate the sensor surface. […] To evaluate the binding, the analyte ranging from 100 nM, 250 nM and 500 nM were injected into flow cell-1 and flow cell-2, and the real-time interaction data were analyzed by TraceDrawer (Nicoya). […] For peptide C11 efficacy on Siglec-G binding to CD47, with the same setting as Siglec-G binding with CD47 on HS-carboxyl sensor, peptide C11 at 1 µM preincubated with concentrations of rmSiglec-G 100 nM, 250 nM & 500 nM for 30 minutes and then injected into flow cell-1 and flow cell-2, and real-time interaction were analyzed ab TraceDrawer (Nicoya). […]

recombinant mouse CD47 = molecular target: B2; experiment: SPR; same setting as a1 (rmCD47 immobilised on HS-carboxyl sensor); peptide C11 at 1 µM preincubated for 30 minutes with rmSiglec-G at 100, 250 and 500 nM, then injected; conditions: both partners purified
[1] = molecular target: B1; experiment: SPR; OpenSPR (Nicoya), HS-Carboxyl sensor; rmCD47 immobilised by EDC/NHS coupling; rmSiglec-G as analyte at 100, 250 and 500 nM; PBS 0.05% P20, pH 7.4; 40 uL/min; 20°C; global fit for 1:1 binding; conditions: both partners purified

Row | Molecule | Kd (rmCD47) [nM] | KD in the presence of 1 µM C11 (recombinant mouse CD47) [nM] | Kd [1] [nM]
1 | B1 | 10.8 | 155 | –
2 | B2 | – | – | 10.8

From PMC12187842, “A novel molecule targeting neutrophil-mediated B-1a cell trogocytosis attenuates sepsis-induced acute lung injury” (Frontiers in Immunology, 2025)
